Results published in patent US7713932B2, “Calcitonin drug-oligomer conjugates, and uses thereof” (Biocon Limited, priority 2001, dated 2010).
Several values for one entry are separate records, joined by “and”; a condition that tells them apart may be missing. Equal values may be shown once. Each block holds one compound with its values, some of them ahead of it.

Columns and labels:
Format in all cases: in vitro ADME
[1] = test system: Trypsin; experiment: Enzymatic stability: 1 U/mL trypsin digest; conditions: for % Remaining, Control: Control tube (1 mM HCl, no enzyme); for % Remaining following 1 U/mL Trypsin Digest: Non-Formulated, replicate columns
Protocol: (§1) Compounds, supplied as lyophilized powders, are resuspended in 10 mM phosphate buffer pH 7.4 and then submitted for concentration determination by HPLC. The phosphate buffer is used to create a solution with a pH that is optimum for activity of each particular gut enzyme. Aliquots of the compound thus prepared are transferred to 1.7 mL microcentrifuge tubes and shaken in a 37° C. water bath for 15 minutes to allow compounds to equilibrate to temperature. After 15 minutes, 2 μL of the appropriate concentrated gut enzyme is added to each tube to achieve the final concentration desired. Chymotrypsin and trypsin are resuspended in 1 mM HCl. Also, as a control, compounds are treated with 2 μL of 1 mM HCl. Immediately following additions, 100 μL of sample is removed from the control tube and quenched with either 25 μL of chymotrypsin/trypsin quenching solution (1:11% TFA:Isopropanol). This sample will serve as T=0 min. A sampling procedure is repeated at various time intervals depending on the gut enzyme used. Chymotrypsin has 15, 30 and 60 minute samples. Trypsin has 30, 60, 120 and 180 minute samples. Once all points have been acquired, a final sample is removed from the control tube to make sure that observed degradation is not temperature or buffer related. The chymotrypsin and trypsin samples may be collected directly into HPLC vials. RP-HPLC (acetonitrile gradient) is used to determine AUC for each sample and % degradation is calculated based from the T=0 min control. The results are provided below in Tables 1 to 4.

[2] = Enzymatic stability: 1 U/mL trypsin digest; conditions: trypsin 1 U/mL, pH 7.4, Non-Formulated, replicate columns, read-out: % Remaining following 1 U/mL Trypsin Digest
Protocol: as §1

[3] = test system: Chymotrypsin; experiment: Enzymatic stability: 0.5 U/mL chymotrypsin digest; conditions: for % Remaining Following 0.5 U/mL Chymotrypsin Digest: replicate columns; for % Remaining, Control: Control tube (1 mM HCl, no enzyme)
Protocol: as §1

[4] = Enzymatic stability: 0.5 U/mL chymotrypsin digest; conditions: chymotrypsin 0.5 U/mL, pH 7.4, Non-Formulated, replicate columns, read-out: % Remaining Following 0.5 U/mL Chymotrypsin Digest
Protocol: as §1

Compound: COCCOCCOCCOCCOCCOCCOCCOCCCCCCCC(=O)NCCCC[C@H](NC(=O)CNC(=O)[C@H](CC(C)C)NC(=O)[C@@H](NC(=O)[C@@H]1CSSC[C@H](N)C(=O)N[C@@H](CO)C(=O)N[C@@H](CC(N)=O)C(=O)N[C@@H](CC(C)C)C(=O)N[C@@H](CO)C(=O)N[C@@H]([C@@H](C)O)C(=O)N1)C(C)C)C(=O)N[C@@H](CC(C)C)C(=O)N[C@@H](CO)C(=O)N[C@@H](CCC(N)=O)C(=O)N[C@@H](CCC(=O)O)C(=O)N[C@@H](CC(C)C)C(=O)N[C@@H](Cc1c[nH]cn1)C(=O)N[C@@H](CCCCNC(=O)CCCCCCCOCCOCCOCCOCCOCCOCCOCCOC)C(=O)N[C@@H](CC(C)C)C(=O)N[C@@H](CCC(N)=O)C(=O)N[C@H](C(=O)N[C@@H](Cc1ccc(O)cc1)C(=O)N1CCC[C@H]1C(=O)N[C@@H](CCCNC(=N)N)C(=O)N[C@H](C(=O)N[C@@H](CC(N)=O)C(=O)N[C@H](C(=O)NCC(=O)N[C@@H](CO)C(=O)NCC(=O)N[C@H](C(=O)N1CCC[C@H]1C(N)=O)[C@@H](C)O)[C@@H](C)O)[C@@H](C)O)[C@@H](C)O
- % Remaining, Control ([1]; 60 min): 103% and 100%
- % Remaining, Control ([1]; 120 min): 106% and 105% and 99%
- % Remaining, Control ([1]; 180 min): 104% and 99%
- remaining at 0.5 h ([2]; 30 min): 87%
- remaining at 1 h ([2]; 60 min): 78%
- remaining at 2 h ([2]; 120 min): 72%
- remaining at 3 h ([2]; 180 min): 81%
- % Remaining Following 0.5 U/mL Chymotrypsin Digest ([3]; Buffered Formulation, 15 min): 88% (2×) and 86%
- % Remaining Following 0.5 U/mL Chymotrypsin Digest ([3]; Buffered Formulation, 30 min): 73% and 88% and 86%
- % Remaining Following 0.5 U/mL Chymotrypsin Digest ([3]; Buffered Formulation, 60 min): 61% and 69% and 84%
- % Remaining, Control ([3]; Buffered Formulation, 60 min): 116% and 104% and 101%
- % Remaining, Control ([3]; Non-Formulated, 60 min): 104% and 88% and 97% and 103%
- remaining at 0.25 h ([4]; 15 min): 63%
- remaining at 0.5 h ([4]; 30 min): 34%

- % Remaining following 1 U/mL Trypsin Digest ([1]; 30 min): 80% and 50%
- % Remaining following 1 U/mL Trypsin Digest ([1]; 60 min): 66% and 28% and 69% and 76%
- % Remaining following 1 U/mL Trypsin Digest ([1]; 120 min): 44% and 7% and 46% and 59%
- % Remaining following 1 U/mL Trypsin Digest ([1]; 180 min): 2% and 31% and 46%
- % Remaining Following 0.5 U/mL Chymotrypsin Digest ([3]; Buffered Formulation, 15 min): 59% and 91% and 92%
- % Remaining Following 0.5 U/mL Chymotrypsin Digest ([3]; Buffered Formulation, 30 min): 54% and 86% and 87%
- % Remaining Following 0.5 U/mL Chymotrypsin Digest ([3]; Buffered Formulation, 60 min): 55% and 82% and 85%
- % Remaining, Control ([3]; Buffered Formulation, 60 min): 102% and 98% and 103%
- % Remaining Following 0.5 U/mL Chymotrypsin Digest ([3]; Non-Formulated, 15 min): 62% and 35%
- % Remaining Following 0.5 U/mL Chymotrypsin Digest ([3]; Non-Formulated, 30 min): 30% and 26% and 40% and 13% and 42%
- % Remaining Following 0.5 U/mL Chymotrypsin Digest ([3]; Non-Formulated, 60 min): 1.6% and 5% and 12% and 1%
Compound: CC(C)C[C@H](NC(=O)[C@H](CCCCN)NC(=O)CNC(=O)[C@H](CC(C)C)NC(=O)[C@@H](NC(=O)[C@@H]1CSSC[C@H](N)C(=O)N[C@@H](CO)C(=O)N[C@@H](CC(N)=O)C(=O)N[C@@H](CC(C)C)C(=O)N[C@@H](CO)C(=O)N[C@@H]([C@@H](C)O)C(=O)N1)C(C)C)C(=O)N[C@@H](CO)C(=O)N[C@@H](CCC(N)=O)C(=O)N[C@@H](CCC(=O)O)C(=O)N[C@@H](CC(C)C)C(=O)N[C@@H](Cc1c[nH]cn1)C(=O)N[C@@H](CCCCN)C(=O)N[C@@H](CC(C)C)C(=O)N[C@@H](CCC(N)=O)C(=O)N[C@H](C(=O)N[C@@H](Cc1ccc(O)cc1)C(=O)N1CCC[C@H]1C(=O)N[C@@H](CCCNC(=N)N)C(=O)N[C@H](C(=O)N[C@@H](CC(N)=O)C(=O)N[C@H](C(=O)NCC(=O)N[C@@H](CO)C(=O)NCC(=O)N[C@H](C(=O)N1CCC[C@H]1C(N)=O)[C@@H](C)O)[C@@H](C)O)[C@@H](C)O)[C@@H](C)O [Salmon Calcitonin]
